Assay: yeast display, Sf9 membrane polyspecificity reagent, FACS + sequencing; frameworks hold sequencing errors
Procedure, shortened: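 In a synthetic yeast display library (Saccharomyces cerevisiae BJ5465), nanobody expression was induced with galactose for 36–48 hours. FACS gates were set low and high (top ~1%) using anti-HA fluorescence for expression and streptavidin fluorescence for binding of the Sf9 membrane reagent. Each polyreactivity label is drawn from the gate of origin.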
In the case of “QDQLVESGGGLVQAGGSLRLSCAASGYTFRYNAMGWYIQATGKERELVATITRGGSTNYADSVKGRFTISRDNAKNTVYLQMNSLKPEDTAVYYCNKEAAPLAFVPSYYGRDYWGQGTEVTVSS”, the “polyreactivity (PSR sort gate)” value is reported as “low polyreactivity”.
With “QDQLVESGGGLVQAGGSLRLSCAASGYTFSYYAMGWYRQAPGKERELVARISWGGGSTYYADSVKGRFTISRDNAKNTVYLQMNSLKPEDTAVYYCNARDLGRDWYWPEDDYWGQGTQVTVSS” the “polyreactivity (PSR sort gate)” value was “low polyreactivity”.
With “QDQLVESGGGLVQAGGSLRLSCAASRSIFYGYATRSYRQEPGKESELVAAISYSGDRTYYADSVKGRFTISRDNAKNTVYLQMNSLKPEDTAVYYCAAESRGVGAYYYRGQGTQVTVSS” the “polyreactivity (PSR sort gate)” value was “high polyreactivity”.
For “QDQLVESGGGLVQAGGSLRLSCAASVRIFWLYAMGWYRQAPGKERELVAVISWSGGTTYYADSVKGRFTISRDNAKNTVYLQMNSLKPEDTAVYSCAAQVGFYTNYREFDYWGQGTQVTVSS”, the “polyreactivity (PSR sort gate)” value was “low polyreactivity”.
In the case of “QDQLVESGGGLVQAGGSLRLSCAASVSIFGSYAMGWYRQAPGKERELVAGITSSGGSTYYADSVKGRFTISRDNAKNTVYLQMNSLKPEDTAVYYCNAPLGWWQFYYCGQGTQVTVSS”, the “polyreactivity (PSR sort gate)” value is reported as “high polyreactivity”.
With “QDQLVESGGGLVQAGGSLRLSCAAYGNTIIRYAMGWYRQAPGKERELVAAIAYSGGRTYYADSVKGRFTISRDNAKNTVFLQMNSLKPEDTAVYYCNAASRYGGDYWGQGTQVTVSS” the “polyreactivity (PSR sort gate)” value was “high polyreactivity”.
In the case of “QDQLVESGGGLVQAGGSLRLSCAAYGRIFRANVMGWYRQAPGKERELVAAINWSGGSTYYADSVKGRFTISRDIAKNTVYLQMNSLKPEDTAVYYCAAAYKWFGEGRFYYWGQGTQVTVSS”, the “polyreactivity (PSR sort gate)” value is reported as “high polyreactivity”.
For “QDQLVESGGGLVQAGGSLRLSCAGSGSTFKRYAMGWYRQAPGKDRELVAAISRRGGSTYYADSVKGRFTISRDNAKNTVYLQMNSLKPEDTAVYYCAARGTGNIYDYWGQGTQVTVSS”, the “polyreactivity (PSR sort gate)” value was “high polyreactivity”.
For “QDQLVESGGGLVQAGGSLRLSCAPSGRTFGGYSMGWYRQAPGKERELVASNTSGGSTYYADSVKGRFTISRDNAKNTVYLQMNSLKPEDTAVYYCAAVTYFETSSRAIPSNDYWGQGTQVTVSS”, the “polyreactivity (PSR sort gate)” value was “low polyreactivity”.
For “QDQLVESGGGLVQAGGSLRLSCAPSGRTFRYNAMGWYIQAPVKERELVAAINWNCGSTYYADSVKGRFTISRDNAKNTVYLQMNSLKPEDTAVYYCNADFYHRYDWGQGTQVTVSS”, the “polyreactivity (PSR sort gate)” value was “high polyreactivity”.
With “QDQLVESGGGLVQAGGSLRLSCASSGSIITQYAMGWYRQAPGKERELVAAITSGGSPYADSVKGRFTISRDNAKNTVYLQMNSLKPEDTADYYCATPYSYRGVTFNYWGQGTQVTVSS” the “polyreactivity (PSR sort gate)” value was “low polyreactivity”.
With “QDQLVESGGGLVQAGGSLRLSCASSGSTFNIYAMGWYRQAPGKERELVAAITSRGTSTYYADSVKGRFTISRDNAKNTVYLQMNSLKPEDTAVYYCAAEVSGNYYRYNYWGQGTQVTVSS” the “polyreactivity (PSR sort gate)” value was “high polyreactivity”.
With “QDQLVESGGGLVQAGGSLRLSCASSVRTIYIYAMGWYRHPPGKESEFVASITGRGTRTYYADSVKGRFTISRDNAKNTVYLQMNSLTQEDTAVYYCNARGKVQSSYDEDYWGQGTQVTVSS” the “polyreactivity (PSR sort gate)” value was “high polyreactivity”.
In the case of “QDQLVESGGGLVQAGGSLRLSCDASGSIIQSYTMGWYRQAPGKERELVAAIDSGGSTYYADSVKGRFTISRDNAKNTVYLQMNSLKPEDTAVYYCAAEPDTYWYTYDYWGQGTQVTVSS”, the “polyreactivity (PSR sort gate)” value is reported as “low polyreactivity”.
For “QDQLVESGGGLVQAGGSLRLSCDASGYIFQSNVLGWYRQAPGKERELVAAITVSGGSTYYADSVKGRFTISRDNAKNTVYLQMNSLKPEDTAVYYCAALVAHKGDYWGQGTQVTVSS”, the “polyreactivity (PSR sort gate)” value was “high polyreactivity”.
For “QDQLVESGGGLVQAGGSLRLSCSASGSIFRDKAMGWYRQAPGKERELVAAISIVGSTSYADSVKGRFTISRDNAKNTVYLQMNSLKPEDTAVYYCAADTFYSYYDMDYWGQGTQVTVSS”, the “polyreactivity (PSR sort gate)” value was “low polyreactivity”.
In the case of “QDQLVESGGGLVQAGGSLRLSFAASGLTFRYYAMGWYRQAPGKERELVAAISSGGRTDYADSVKGRFTISRDNAKNTVYLQMNSLKPEDTAVYYCNARGRIRSYRQVRTYSAYNYWGQGTQVTVSS”, the “polyreactivity (PSR sort gate)” value is reported as “high polyreactivity”.
For “QDQLVESGGGLVQAGGSLRLSFAASGNIFRYYAMGWYRQAPGKERELVAAISRSGGNTYYADSVKGRFTISRDNAKNTVYLQMNSLKTEDTAVYYCAVVLSTYSYADYDYWGQGTQVTLSS”, the “polyreactivity (PSR sort gate)” value was “high polyreactivity”.
For “QDQLVESGGGLVQAGGSLRLSGAASGRIFRTNAMGWSRQAPGKERELVAAISDSGADTSYADSVKGRFTISRDNAKQSVYLQMNSLKPEDTAVYYCNRGRVSYRYLKDYDYWGQGTQVTVSS”, the “polyreactivity (PSR sort gate)” value was “low polyreactivity”.
In the case of “QDQLVESGGGLVQAGGSLRLSGAASGSTFGGNAMGWYRQAPGKERELVAAISSSGGSTYYADSVKGRFTISRDNAKYSVYLQMNRLKPEDTAVYYCAAMYHWTYDYWGQGTQVTVSS”, the “polyreactivity (PSR sort gate)” value is reported as “low polyreactivity”.
In the case of “QDQLVESGGGLVQAGGSLRLSSAASGRTFCYNTKGWYRQSPGKERELLAAINYSGGSTYYADSVKGRFTISRDNAKNTVYLQMNSLKPEDTAVYYWNAKPRWYVPYDYWGQGTQVNVSS”, the “polyreactivity (PSR sort gate)” value is reported as “high polyreactivity”.
With “QDQLVESGGGLVQAGGSLRLTCAASGSTFNYYAMGWYRQAPGKERELVAAISRSGGRTYYADSVKGRFTISRDNAKTTVYLQMNSLKEEDTAVYYCAAQVLTTGGEGGYWGQGTQVTVSS” the “polyreactivity (PSR sort gate)” value was “high polyreactivity”.
With “QDQLVESGGGLVQAGGSLSLICDASGRTFSTKFMGWYIQAAGKERQLVAAITTSSSRTYYADSVKGRFTISRDNANHTVYLLMNSLKPEDTAVYYCAARIHGSWSFDYWGQGTQVTLSS” the “polyreactivity (PSR sort gate)” value was “low polyreactivity”.
With “QDQLVESGGGLVQAGGSLSLSCAASGRNFFHNAMGWYRQAPGKERELVASITSGDGTYYADSVKGRFTISRDNAKNTVYLQMNSMKPEDTEVYSCAAEPGSIAYYYTRVGLYYWGQGTQVTVSS” the “polyreactivity (PSR sort gate)” value was “low polyreactivity”.
For “QDQLVESGGGLVQAGGSLSLSCAASGRTFTVYAMGWYRQAPGKERELVAAISGSSGSTDYADSVKGRFTISRDNAKNTVYLQMNSLKPEDTAVYYCAKASSATRYVQLRQDYDYWGQGTQVTVSS”, the “polyreactivity (PSR sort gate)” value was “low polyreactivity”.
With “QDQLVESGGGLVQAGGSLSLSCAASGSTFLTNAMGWYRQAPGKERELVAAISRRGGNTYYADSVKGRFTISRDNAKNTVYLQMNSMNPEDTAVYYCNAVTPTTLGDYWGQGTQVTVSS” the “polyreactivity (PSR sort gate)” value was “high polyreactivity”.
In the case of “QDQLVESGGGLVQAGGTLRLSGAASGRTFDRNAMGWYRQAPGKAWEVVAGITRSGDSTYADSVKGRFTISRDNAKNTVYLQMNSLKPEDTAVYYCNKEGTVGGTRGYWGQGTQVTVSS”, the “polyreactivity (PSR sort gate)” value is reported as “low polyreactivity”.
With “QDQLVESGGGLVQAGVSLLLICAASGSTSSVYAMGWYRQAPGKERELVAAIRWSTGSTYYADSVKGLFTISRDNAKNTVYLHMNCLKPEETALYYCAAEVYTSVHIYSWYYYWGQGTKVTVSS” the “polyreactivity (PSR sort gate)” value was “high polyreactivity”.
For “QDQLVESGGGLVQAGVSLRLICPASGLTFYTYAMGSYRQAPGKERELVAAIRRRGGRTYYADSVKGRFTISRDNAKNTVFLQMNSLKPEDTAVYYCAADYSTLFKYDYWGQGTQVTVSS”, the “polyreactivity (PSR sort gate)” value was “low polyreactivity”.
In the case of “QDQLVESGGGLVQARGSLRLSCAASGSIFVHNAMGWYRQAPGKEREFVAAITWSGGSTYYADSVKGRFTISRDYAKNTVYLQMNSLKPEDTAVSYCAAEDVAAQWAYESPTSYWYYYWGQGTQVTVSS”, the “polyreactivity (PSR sort gate)” value is reported as “low polyreactivity”.
With “QDQLVESGGGLVQARGSLRLSCASSGSTFDTNTMGWYRQAPGKERELVASNSRGTSTKYADSVKGRFTISRDNAKNTVYLQMNSLKPEDTAVYYCNAVSRDKSLYDYWGQGTQVTVSS” the “polyreactivity (PSR sort gate)” value was “high polyreactivity”.
In the case of “QDQLVESGGGLVQARVSLRLSCAASGLIFRRYAMGWYRQAPGKEREFVAAITVSGGRTYYADSVKGRFTISRDNAKNTVYLQMNSLKQEDTAVYYCDAHGYGDNRNKYFYWGLGTQVTVSS”, the “polyreactivity (PSR sort gate)” value is reported as “high polyreactivity”.
For “QDQLVESGGGLVQAVGSLRLSCAASGSTFWSYAMGWYRQAPGKERELVAAITDSGGSTYYADSVKGRFTISRDNAKNTVYLQMNSLKPEDTAVYYCAVDSRYTPPLRPLGPFDYWGQGTQVTVSS”, the “polyreactivity (PSR sort gate)” value was “low polyreactivity”.
In the case of “QDQLVESGGGLVQSGGSLLLSCAPSGSMFSFYAMGCYRQAPGKEMELVAAITRGGATTNFADSVKGRFTISRDNAKNTVYLQMNSLKPEDTAVYYCAARTPNVNAVWMDYWGQGTQVTVSS”, the “polyreactivity (PSR sort gate)” value is reported as “high polyreactivity”.
In the case of “QDQLVESGGRLVQAGGSLRLSCAASGITFSRYAMGWYRQAPGKEWELVAAISCSGARTYYADSVKGRFTISRDNAKNTVYLQMNSLKPEDTAVYYCDRFLRNFKTYDYWGQGTQLTVSS”, the “polyreactivity (PSR sort gate)” value is reported as “high polyreactivity”.
For “QDQLVESGGRLVQAGGSLRLSCAASGRTVYYYTMGWYRQAPGKEREFVAGIRYSGSSTYYADSVKGRFTISRDTAKNTVSFQMNSLKPEATAVYYCAASLWRWRFSRFGYWGQGTQVTVSS”, the “polyreactivity (PSR sort gate)” value was “high polyreactivity”.
For “QDQLVESGRGLDQAGGSLRLICAASGRIFDRYALGWYRQAPGTERELVAAISWNTGSTYYADSVKGRFTISRDNAKNTVYLQMNSLKPEDTAVYYCAAAVRPYKRQDDYWGQGTQVTVSS”, the “polyreactivity (PSR sort gate)” value was “high polyreactivity”.
For “QDQLVESGVGLVQAGVSLRLSCAASGSIFESYAMGWSSQAPGKESELVAAIDYDDGSTYYADSVKGRFTISRDNAKNTVYLQMNSLKPEDTAVYYCAAKPTTYYGISDYWGQGTQVTVAS”, the “polyreactivity (PSR sort gate)” value was “high polyreactivity”.
In the case of “QDQLVESRGGLVQAGGSLRLSCAASGLIFPVYAMGWYRQAPRKEREFVASIWRGGTTYYADSVKGRFTISRDNAKNTVYLQMISLKPEDTAVYYCAAVVYSRGYYWGQGTQVTVSS”, the “polyreactivity (PSR sort gate)” value is reported as “high polyreactivity”.
With “QDQLVESRGGLVQAGGSLRLSCAASGSTFVNNAMGWYRQAPGKERELVAAIRSSDGRTYYADSVKGRFTISRDNAKNTVYLQMNSLKPEDSAVYYCATAVGTKYRTRIFEFYYWGQGTQVTVSS” the “polyreactivity (PSR sort gate)” value was “high polyreactivity”.
For “QDQLVESRGGLVQAGRSLRISCAASGFIFYNYGMGWYRQAPGKEREFVAAITKRGGRTYYADSVKGRFTISRDYAKNTVYLQMTSLKPEDTAVYYCNKAIRQDRWVQEEDYWGQGTQVTVSS”, the “polyreactivity (PSR sort gate)” value was “high polyreactivity”.
In the case of “QDQLVESRGGLVQAGVSLRLSCAASGIIFAENAMGWYRQAPGKERELVAAITWNGGRTYYADSVKGRFTISRDNAKNTVYLQMNSLKPEDTAVYYCNAVTVYYRIYEYWGQGTQVNVSS”, the “polyreactivity (PSR sort gate)” value is reported as “high polyreactivity”.
For “QDQLVESRGVLVQAGGTLRLSCAASGSTFVYYVMGWYRQAPVKERELVAAISWSDDSTYYADSVKGRFTISRDNAKNTVYLQMNSLIPVDTAVYYCAATGYPFYTSGDIEYYYWGQGTQVTVSS”, the “polyreactivity (PSR sort gate)” value was “low polyreactivity”.

From the nanobody polyreactivity screen of Harvey et al. (2022)
